Assay results: FireProtDB

B1: Catalase-peroxidase 2, A4QUT2 (parent)
chain: MHASLSSWLLAASLLTQPISVSGQGCPFAKRDGTVDSSLPQKRADAPETTTFGRCAVKSNQAGGGTRSHDWWPCQLRLDVLRQFQPSQNPLGGDFDYAEAFQSLDYEAVKKDIAALMTESQDWWPADFGNYGGLFVRMAWHSAGTYRAMDGRGGGGMGQQRFAPLNSWPDNQNLDKARRLIWPIKQKYGNKISWADLMLLTGNVALENMGFKTLGFGGGRADTWQSDEAVYWGAETTFVPQGNDVRYNNSVDINARADKLEKPLAATHMGLIYVNPEGPNGTPDPAASAKDIREAFGRMGMNDTETVALIAGGHAFGKTHGAVKGSNIGPAPEAADLGMQGLGWHNSVGDGNGPNQMTSGLEVIWTKTPTKWSNGYLESLINNNWTLVESPAGAHQWEAVNGTVDYPDPFDKTKFRKATMLTSDLALINDPEYLKISQRWLEHPEELADAFAKAWFKLLHRDLGPTTRYLGPEVPKESFIWQDPLPAREGDLIDDADVDKLKAAILSTDGLDVSKLASTAMACATTYRNSDKRGGCNGARIALEPQRNWVSNNPTQLSAVLDALKKVQSDFNGSNGNKKVSLADLIVLGGTAAVEKAAKDAGVDIKVPFSAGRVDATQEQTDVTQFSYLEPQADGFRNYGRGTARARTEEIMVDKASQLTLTPPELTVLVGGMRALGANYDGSDVGVFTANKGKLTPDFFVNLVDMNIAWTASGADGESWVGTDRKSRSEKYKGSRADLVFGSHAELRAIAEVYAENGNQEKFVKDFVAAWTKVMNLDRFDLKVKK
B2: Superoxide dismutase [Mn], mitochondrial, P04179 (parent)
chain: MLSRAVCGTSRQLAPVLGYLGSRQKHSLPDLPYDYGALEPHINAQIMQLHHSKHHAAYVNNLNVTEEKYQEALAKGDVTAQIALQPALKFNGGGHINHSIFWTNLSPNGGGEPKGELLEAIKRDFGSFDKFKEKLTAASVGVQGSGWGWLGFNKERGHLQIAACPNQDPLQGTTGLIPLLGIDVWEHAYYLQYKNVRPDYLKAIWNVINWENVTERYMACKK
B3: Tryptophan synthase alpha chain, P0A877 (parent)
chain: MERYESLFAQLKERKEGAFVPFVTLGDPGIEQSLKIIDTLIEAGADALELGIPFSDPLADGPTIQNATLRAFAAGVTPAQCFEMLALIRQKHPTIPIGLLMYANLVFNKGIDEFYAQCEKVGVDSVLVADVPVEESAPFRQAALRHNVAPIFICPPNADDDLLRQIASYGRGYTYLLSRAGVTGAENRAALPLNHLVAKLKEYNAAPPLQGFGISAPDQVKAAIDAGAAGAISGSAIVKIIEQHINEPEKMLAALKVFVQPMKAATRS

Variants of: B1
Settings: Pyricularia oryzae (strain 70-15 / ATCC MYA-4617 / FGSC 8958); pH 7; Thermal; DSC; Phosphate buffer 5 mM; transition: 2; structure 5JHZ; whole UniProt chain shown

Row | Variant | Tm [°C]
1 | Y273F | 43.6
2 | M299A | 48.2
3 | W140F | 44.8

Variants of: B2
Settings: Homo sapiens; pH 7.8; 70 °C; Thermal; DSC; Potassium phosphate 2 mM; reversible: yes; structure 1N0J; whole UniProt chain shown

Row | Variant | ddG of mutation (higher = less stable) [kcal/mol]
4 | MLSRAVCGTSRQLAPVLGYLGSRQKHSLPDLPYDYGALEPHINAQIMQLHHSKHHAAYVNNLNVTEEKYQEALAKGDVTAQTALQPALKFNGGGHINHSIFWTNLSPNGGGEPKGELLEAIKRDFGSFDKFKEKLTAASVGVQGSGWGWLGFNKERGHLQIAACPNQDPLQGTTGLIPLLGIDVWEHAYYLQYKNVRPDYLKAIWNVINWENVTERYMACKK [I82T] | 2.7

Same assay, conditions: Homo sapiens; pH 7.8; Thermal; DSC; Potassium phosphate 2 mM; reversible: yes; structure 1N0J; whole UniProt chain shown

Row | Variant | Tm [°C] | change of melting temperature, mutant - wild type (higher = more stable) [°C] | unfolding enthalpy (calorimetric) [kcal/mol]
5 | MLSRAVCGTSRQLAPVLGYLGSRQKHSLPDLPYDYGALEPHINAQIMQLHHSKHHAAYVNNLNVTEEKYQEALAKGDVTAQTALQPALKFNGGGHINHSIFWTNLSPNGGGEPKGELLEAIKRDFGSFDKFKEKLTAASVGVQGSGWGWLGFNKERGHLQIAACPNQDPLQGTTGLIPLLGIDVWEHAYYLQYKNVRPDYLKAIWNVINWENVTERYMACKK [I82T] | 56.4 | -13.6 | 64.9

Variants of: B3
Settings: Escherichia coli (strain K12); pH 7; 25 °C; Thermal; DSC; tetra-borate 1 mM; reversible: yes(70-95%); structure 1WQ5; whole UniProt chain shown

Row | Variant | unfolding enthalpy (calorimetric) [kcal/mol] | unfolding free energy [kcal/mol]
6 | MERYESLFAQLKERKEGAFVPFVTLGDPGIEQSLKIIDTLIEAGADALQLGIPFSDPLADGPTIQNATLRAFAAGVTPAQCFEMLALIRQKHPTIPIGLLMYANLVFNKGIDEFYAQCEKVGVDSVLVADVPVEESAPFRQAALRHNVAPIFICPPNADDDLLRQIASYGRGYTYLLSRAGVTGAENRAALPLNHLVAKLKEYNAAPPLQGFGISAPDQVKAAIDAGAAGAISGSAIVKIIEQHINEPEKMLAALKVFVQPMKAATRS [E49Q] | 23.2 | 7.4

Same assay, conditions: Escherichia coli (strain K12); pH 7; 25.8 °C; GdnHCl; CD; Potassium phosphate 0.01 M; reversible: yes; structure 1WQ5; whole UniProt chain shown

Row | Variant | ddG of mutation (higher = less stable) [kcal/mol] | unfolding free energy [kcal/mol]
7 | MERYESLFAQLKERKEGAFVPFVTLGDPGIEQSLKIIDTLIEAGADALQLGIPFSDPLADGPTIQNATLRAFAAGVTPAQCFEMLALIRQKHPTIPIGLLMYANLVFNKGIDEFYAQCEKVGVDSVLVADVPVEESAPFRQAALRHNVAPIFICPPNADDDLLRQIASYGRGYTYLLSRAGVTGAENRAALPLNHLVAKLKEYNAAPPLQGFGISAPDQVKAAIDAGAAGAISGSAIVKIIEQHINEPEKMLAALKVFVQPMKAATRS [E49Q] | 2.5 | 6.3

Same assay, conditions: Escherichia coli (strain K12); pH 7; Thermal; DSC; tetra-borate 1 mM; reversible: yes(70-95%); structure 1WQ5; whole UniProt chain shown

Row | Variant | Tm [°C] | heat capacity change of unfolding [kcal/mol/K]
8 | MERYESLFAQLKERKEGAFVPFVTLGDPGIEQSLKIIDTLIEAGADALQLGIPFSDPLADGPTIQNATLRAFAAGVTPAQCFEMLALIRQKHPTIPIGLLMYANLVFNKGIDEFYAQCEKVGVDSVLVADVPVEESAPFRQAALRHNVAPIFICPPNADDDLLRQIASYGRGYTYLLSRAGVTGAENRAALPLNHLVAKLKEYNAAPPLQGFGISAPDQVKAAIDAGAAGAISGSAIVKIIEQHINEPEKMLAALKVFVQPMKAATRS [E49Q] | 59.4 | 2.87

Same assay, conditions: Escherichia coli (strain K12); pH 7.2; 25 °C; Thermal; CD; tetra-borate 1 mM; reversible: yes(70-95%); structure 1WQ5; whole UniProt chain shown

Row | Variant | unfolding free energy [kcal/mol]
9 | MERYESLFAQLKERKEGAFVPFVTLGDPGIEQSLKIIDTLIEAGADALQLGIPFSDPLADGPTIQNATLRAFAAGVTPAQCFEMLALIRQKHPTIPIGLLMYANLVFNKGIDEFYAQCEKVGVDSVLVADVPVEESAPFRQAALRHNVAPIFICPPNADDDLLRQIASYGRGYTYLLSRAGVTGAENRAALPLNHLVAKLKEYNAAPPLQGFGISAPDQVKAAIDAGAAGAISGSAIVKIIEQHINEPEKMLAALKVFVQPMKAATRS [E49Q] | 6.1

Same assay, conditions: Escherichia coli (strain K12); pH 7.2; Thermal; CD; tetra-borate 1 mM; reversible: yes(70-95%); structure 1WQ5; whole UniProt chain shown

Row | Variant | Tm [°C] | heat capacity change of unfolding [kcal/mol/K] | unfolding enthalpy (van 't Hoff) [kcal/mol]
10 | MERYESLFAQLKERKEGAFVPFVTLGDPGIEQSLKIIDTLIEAGADALQLGIPFSDPLADGPTIQNATLRAFAAGVTPAQCFEMLALIRQKHPTIPIGLLMYANLVFNKGIDEFYAQCEKVGVDSVLVADVPVEESAPFRQAALRHNVAPIFICPPNADDDLLRQIASYGRGYTYLLSRAGVTGAENRAALPLNHLVAKLKEYNAAPPLQGFGISAPDQVKAAIDAGAAGAISGSAIVKIIEQHINEPEKMLAALKVFVQPMKAATRS [E49Q] | 59.6 | 2.68 | 14.3

Same assay, conditions: Escherichia coli (strain K12); pH 9.3; Thermal; CD; tetra-borate 1 mM; reversible: yes(70-95%); structure 1WQ5; whole UniProt chain shown

Row | Variant | Tm [°C] | heat capacity change of unfolding [kcal/mol/K] | unfolding enthalpy (van 't Hoff) [kcal/mol]
11 | MERYESLFAQLKERKEGAFVPFVTLGDPGIEQSLKIIDTLIEAGADALQLGIPFSDPLADGPTIQNATLRAFAAGVTPAQCFEMLALIRQKHPTIPIGLLMYANLVFNKGIDEFYAQCEKVGVDSVLVADVPVEESAPFRQAALRHNVAPIFICPPNADDDLLRQIASYGRGYTYLLSRAGVTGAENRAALPLNHLVAKLKEYNAAPPLQGFGISAPDQVKAAIDAGAAGAISGSAIVKIIEQHINEPEKMLAALKVFVQPMKAATRS [E49Q] | 59.6 | 2.68 | 14.3

Same assay, conditions: Escherichia coli (strain K12); pH 9.3; Thermal; DSC; tetra-borate 1 mM; reversible: yes(70-95%); structure 1WQ5; whole UniProt chain shown

Row | Variant | Tm [°C] | heat capacity change of unfolding [kcal/mol/K]
12 | MERYESLFAQLKERKEGAFVPFVTLGDPGIEQSLKIIDTLIEAGADALQLGIPFSDPLADGPTIQNATLRAFAAGVTPAQCFEMLALIRQKHPTIPIGLLMYANLVFNKGIDEFYAQCEKVGVDSVLVADVPVEESAPFRQAALRHNVAPIFICPPNADDDLLRQIASYGRGYTYLLSRAGVTGAENRAALPLNHLVAKLKEYNAAPPLQGFGISAPDQVKAAIDAGAAGAISGSAIVKIIEQHINEPEKMLAALKVFVQPMKAATRS [E49Q] | 62.4 | 2.87
